Measured values from article PMC11347664, “KHSRP ameliorates acute liver failure by regulating pre-mRNA splicing through its interaction with SF3B1” (Cell Death & Disease, 2024).

Target: T1, SF3B1-3 (pET15b-SF3B1-3, amino acids 955–1304) (UniProt O75533 955-1304)
T1 construct: SF3B1, amino acids 955–1304, HEAT 11–22 domain; methods are in the supplement; also called HEAT 11–22 domain of SF3B1; source: recombinant protein from pET15b-SF3B1-3
Assay: pull-down; cell-free system; recombinant KHSRP-KH4Q and SF3B1-3; inputs and pulled-down proteins detected by Coomassie staining and Western blotting
Settings: both partners purified

T1 sequence (O75533 955-1304): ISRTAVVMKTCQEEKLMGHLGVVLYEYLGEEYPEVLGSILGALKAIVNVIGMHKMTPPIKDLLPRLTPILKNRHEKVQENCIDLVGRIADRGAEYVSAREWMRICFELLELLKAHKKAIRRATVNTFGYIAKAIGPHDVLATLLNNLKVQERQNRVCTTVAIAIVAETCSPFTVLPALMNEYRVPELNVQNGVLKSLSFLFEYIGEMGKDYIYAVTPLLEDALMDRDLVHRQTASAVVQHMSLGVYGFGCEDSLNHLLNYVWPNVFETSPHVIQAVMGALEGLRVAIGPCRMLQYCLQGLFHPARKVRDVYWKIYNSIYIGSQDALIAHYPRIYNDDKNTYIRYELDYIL

B1: KHSRP-KH4Q (pET15b-KHSRP-KH4Q, amino acids 435–710) (domain or fragment, UniProt Q92945 435-710, looked up)
chain: KCGLVIGRGGENVKAINQQTGAFVEISRQLPPNGDPNFKLFIIRGSPQQIDHAKQLIEEKIEGPLCPVGPGPGGPGPAGPMGPFNPGPFNQGPPGAPPHAGGPPPHQYPPQGWGNTYPQWQPPAPHDPSKAAAAAADPNAAWAAYYSHYYQQPPGPVPGPAPAPAAPPAQGEPPQPPPTGQSDYTKAWEEYYKKIGQQPQQPGAPPQQDYTKAWEEYYKKQAQVATGGGPGAPPGSQPDYSAAWAEYYRQQAAYYGQTPGPGGPQPPPTQQGQQQA
notes: methods are in the supplement; also called KH4–Q-rich domain of KHSRP; source: recombinant protein from pET15b-KHSRP-KH4Q
binding result: binds
